Here are results for 17 molecules from patent publication US20220112288A1 (published 2022).

B1: 75110_10O16A (antibody, V domains shown)
VH: EVQLVESGGGLVQPGGSLRLSCAASGFTFSNSDMHWVRQATGKGLEWVSTIGTAGDTYYPGSVKGRFTISRENAKNSLYLQMNSLRAGDTAVYYCARGGLYYYGMDVWGQGTTVTVSS
VL: ENVLTQSPGTLSLSPGERATLSCRASQSVSSSYLAWYQQKPGQAPRLLIYGASSRATGIPDRFSGSGSGTDFTLTISRLEPEDFAVYYCHQFGSSPFTFGPGTKVDIK
notes: Non-clonal AlivaMab Mouse Kappa hybridoma supernatant, captured by anti-mouse IgG Fc (human V regions, mouse Fc); also called 75110_10016A
B2: 75110_02I16A (antibody, V domains shown)
VH: QVQLQQWGAGLLKPSETLSLTCDVYGGSFSGYYWTWIRQPPGKGLEWIGEINHSGTTNSNPSLKSRVTISVDTSKSQFSLRLSSVTAADTAVYFCTRELNWFDPWGQGTLVTVSS
VL: DIQMTQSPSSVSASVGDRVTITCRASQDIANWLAWYQQKPGKAPQLLIYAASSLLGGVPSRFSGSGSGADFTLTISSLHPEDFATYYCQQANSFPYTFGQGTKLEIK
notes: Tested as antibody purified from AlivaMab Mouse hybridoma supernatant (captured by anti-mouse IgG Fc)
B3: 75110_05B13A (antibody, V domains shown)
VH: QVLLEQWGAGLLKPSETLSLTCAVYGGSFSGYYWTWIRQPPGKGLEWIGEINHRGSTNYNPSLKSRVTISIDTSKNQFSLKVKSVTAADTAMYYCTRPDSNWFDPWGQGTLVTVSS
VL: B2 VL with A30S, Q45K, Y49F, L55Q, G56S, A69T, H79Q, Y96L, Q100G, L104V
notes: as for B2
B4: 75110_04P08A (antibody, V domains shown)
VH: QVQLQQWGAGLLKPSETLSLTCAVYGGSLSGYYWSWIRQSPGKGLEWIGEINQSGSTNYNPSLKSRVTISVDTSKDQFSLRLTSVTAADTAVYYCTRVLNWFDPWGRGTLVTVSS
VL: B2 VL with I21L, A30S, Q45K, L55Q, G56S, A69T, H79Q, P80T
notes: as for B2
B5: 75110_04B08A (antibody, V domains shown)
VH: QVQLVESGGGVVQPGRSLRLSCTASGFNFINYGIHWVRQAPGKGLEWVTIIWYDGSKKYYADSVKGRFAISRDNSKNTLYLQMNSLRAEDTAVYYCAREDDWNDGLAYWGQGTLVTVSS
VL: AIQMTQSPSSLSASVGDRVTITCRASQDIRNDLGWYQQKPGKAPNLLIYAASNLQSGVPSRFSGSGSGTDFTLTISSLQPEDFATYYCLQDSNYPRTFGQGTKVEIK
notes: as for B2
B6: 75110_02E22A (antibody, V domains shown)
VH: QVQLQESGPGLVKPSETLSLTCTVSGGSISSFYWSWIRQPAGKGLEWIGRIYTSGSTNYNPSLKSRVTMSVDTSKNQFSLKLSSVTAADTAVYYCARELEKRNYYGMDVWGQGTTVTVSS
VL: DIQMTQSPSSLSASVGDRVTITCQASHDISNYLNWYQQKPGKAPKLLIFDASTLETGVPSRFSGSGSGTYFTFTIRSLQPEDIATYYCQQYDSLPLTFGGGTKVEIK
notes: as for B2
B7: 75110_04D20A (antibody, V domains shown)
VH: B6 VH with G26N, S31D, F32Y, V67I, K81E, K101R, R102Y, N103Y, Y104F, M107V
VL: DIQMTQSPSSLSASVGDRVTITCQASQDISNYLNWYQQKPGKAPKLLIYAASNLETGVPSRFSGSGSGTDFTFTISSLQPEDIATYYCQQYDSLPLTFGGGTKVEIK
notes: as for B2
B8: 75110_04H17A (antibody, V domains shown)
VH: QVQLQESGPGLVKPSETLSLTCTVSGGSISTYYWSWIRQSAGKGLEWIGRIYTSERPNYNPSLKSRVTMSVDTSKNQFSLKLNSVSAADTAVYYCARELERPYYYGMDVWGQGTTVTVSS
VL: B6 VL with I2V, D17G, H27Q, F49Y, D50Y, T53N, Y70D, R76S, I83F, S93N
notes: as for B2
B9: 75110_01L08A (antibody, V domains shown)
VH: QVQLQESGPGLVKPSETLSLTCTVSGGSISHYYWSWIRQPPGKGLEWIGYIHYSGTTNYNPSLKSRVTISVDTSKNQLSLKLRSVTAADTAVYYCARDQGFSSGGMDVWGQGTTVTVSS
VL: not shown
notes: as for B2
B10: 75110_03I08A (antibody, V domains shown)
VH: QVQLQESGPGLVKPSETLSLTCTVSGGSISSYYWSWIRQPPGKGLEWIGYIYYSGSTNYNPSLKSRVTISVDTSKNQFSLKLSSVTAADTAVYYCAREGEQWFYGLDVWGQGTTVTVSS
VL: EIVLTQSPGTLSLSPGERATLSCRASQSVSSTYLAWYQQKPGQAPRLLIYGSSSRATGIPDRFSGSGSGTDFTLTISRLEPEDFAVYYCQQYGNSFPITFGQGTRLEIK
notes: as for B2
B11: 75110_04G16A (antibody, V domains shown)
VH: QVQLQESGPGLVKPSQTLSLTCTVSGDSISSGYYYWSWIRQHPGKGLEWIGYISYSGSTYYNPSLKSRLTISVNTSKNQFSLKLSSLTAADTAVYYCARDRPSNFDAFDIWGQGTMVTVSS
VL: B1 VL with N2I, S30G, S32T, S53F, H90Q, F92Y, F97L
notes: as for B2
B12: 75110_05E05A (antibody, V domains shown)
VH: QVQLQESGPGLVKPSETLSLTCTVSGGSIGSYYWSWIRQPAGKGLEWIGRIYTSGSTNYNPSLKSRVTMSFDTSKNQFSLKLNSVTAADTAVYYCATDGGVGDSLDYWGQGTLVTVSS
VL: DIVMTQTPLSLPVTPGEPASISCRSSQSLLDSDDGNTYLDWYLQKPGQSPQLLIYTLSYRASGVPDRFSGSGSGTDFTLKISRVEAEDVGVYYCMQHIEFPFTFGPGTKVDIK
notes: as for B2
B13: 75110_02K11A (antibody, V domains shown)
VH: B11 VH with D27G, Y33F, S37T, S58N, L65F, N74D, N78S, L87V
VL: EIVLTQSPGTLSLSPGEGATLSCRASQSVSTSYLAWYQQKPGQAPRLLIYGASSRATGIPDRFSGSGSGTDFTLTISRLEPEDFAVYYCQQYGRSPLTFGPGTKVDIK
notes: as for B2
B14: 75110_03B16A (antibody, V domains shown)
VH: EVQLVESGGGLVQPGGSLRLSCAASGFTFSSYWMSWVRQAPGKGLEWVANINEDGSEKNYVDSVKGRFTISRDNAKNSLCLQLNSLRAEDTAVYHCAREGGQWLALDYWGQGTLVTVSS
VL: DIQMTQSPSSVSASVGDRVNITCRASQGIRSWLAWYQQKPGKTPKLLICGASSLQSGVPSRFSGSGSGTDFTLTISSLQPEDFATYYCQQANSFPWTFGQGTTVEIK
notes: as for B2
B15: 75110_02E08A (antibody, V domains shown)
VH: QVQLQESGPGLVKPSETLSLTCTVSGGSISTYYWTWIRQPAGKGLEWIGRVYTSGDTNYNPSLKSRVAMSLDTSKNQFSLKLSSVTAADTAVYYCARDSGALYSWNYGDAFDIWGQGTMVTVSS
VL: DIQMTQSPSAMSASVGDRVTITCRASQDISNYLAWFQQKPGKVPKRLIYAASSLQSGVPSRFSGSGSGTEFTLTISSLQPEDFATYYCLQHNSYPRTFGQGTKVEIK
notes: as for B2
B16: 75110_05E13A (antibody, V domains shown)
VH: EVQLVESGGDLVKPGGSLRLSCAASGFSFSNAWMSWVRQAPGKGLEWVGRVESKTDGGTTDYAAPVKDRFTISRDDSKYTLYLQMNSLKTEDSAVYYCTIGGGFGLELYGFFDYWGQGTLVTVSS
VL: DIQMTQSPSTLSASVGDRVTITCRASQSISSWLAWYQQKPGKAPMLLIYKASSLESGVPSRFSGSGSGTEFTLTISSLQPDDFATYYCLQYNSYYTFGQGTKLEIK
notes: as for B2
B17: 75110_14P08A (antibody, V domains shown)
VH: QVQLQESGPGLVKSSETLSLTCTDSGDSIRSYYWNWIRQPAGKGLEWIGRIYASGSTNYNPSLKSRVIMSADTSKNRFSLKLSSVTAADTAVYYCARDGGVGDSLDYWGQGTLVTVSS
VL: B12 VL with H97R
notes: Tested as non-clonal AlivaMab Mouse Kappa hybridoma supernatant, captured by anti-mouse IgG Fc sensor

Substitutions are numbered along the chain they refer to.

T2 sequence (P16003 26-390 limits assumed): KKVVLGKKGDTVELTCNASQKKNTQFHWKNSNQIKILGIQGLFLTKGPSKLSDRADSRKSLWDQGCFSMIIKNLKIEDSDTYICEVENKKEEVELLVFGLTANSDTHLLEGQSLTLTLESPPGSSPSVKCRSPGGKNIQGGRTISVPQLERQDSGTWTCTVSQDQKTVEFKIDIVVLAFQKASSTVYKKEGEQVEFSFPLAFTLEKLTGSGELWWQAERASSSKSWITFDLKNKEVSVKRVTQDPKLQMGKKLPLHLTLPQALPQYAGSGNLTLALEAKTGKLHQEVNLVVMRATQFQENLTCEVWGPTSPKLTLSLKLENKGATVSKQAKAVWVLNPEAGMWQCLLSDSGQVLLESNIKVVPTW

The target in the first test is T1, Recombinant human CD4 (R&D Systems, Cat. 10327-CD) (human, UniProt P01730 26-390, limits assumed).
T1 construct: Bought soluble recombinant protein used as analyte at 100 nM; also called huCD4
Briefly: BLI (Octet Red384), non-clonal supernatant on AMC sensor, 100 nM human CD4, 1:1 local fit.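 Also: hybridoma antibodies captured from supernatant, single CD4 concentration as analyte, association and dissociation phases fitted together, giving single-point kinetic estimates per supernatant.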 On the technique in general: In BLI a coated tip is dipped into the sample, and binding shifts an interference pattern.
For the molecule B1, the Kd is less than 0.001 nM, the koff is less than 1e-07 s⁻¹ and the kon turned out to be 64800 M⁻¹ s⁻¹.

Another test has as its target T2, Rhesus macaque CD4-HIS (Acro Biosystems, Cat. CD4-C52H7) (rhesus macaque, UniProt P16003 26-390).
T2 construct: Bought reagent; also called Rhesus CD4; rhesus CD4-HIS; not shown: His tag
Briefly: BLI Octet, mAb on anti-mouse Fc sensor, rhesus CD4-HIS 25-100 nM, 1:1 global fit.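 Also: purified antibodies captured at 10 µg/mL, rhesus CD4 analyte run as a three-concentration serial dilution, irrelevant antibody as reference control, one kinetic constant set per antibody from global fitting.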
B2 showed a Kd of 37 nM, a Response of 0.14, a koff of 0.0092 s⁻¹ and a kon of 250000 M⁻¹ s⁻¹.

In turn, B3 gave an equilibrium dissociation constant (Kd) of 4.7 nM, a Response of 0.14, a koff of 0.002 s⁻¹ and a kon of 420000 M⁻¹ s⁻¹.

In the case of B4, the Kd stood at 60 nM, the Response is 0.12, the koff was 0.0091 s⁻¹ and the kon came out at 150000 M⁻¹ s⁻¹.

In turn, B5 showed a Kd of 18 nM, a Response of 0.26, a koff of 0.0048 s⁻¹ and a kon of 270000 M⁻¹ s⁻¹.

In the case of B6, binding was put at a Kd of 51 nM, the Response is 0.15, the koff was 0.0044 s⁻¹ and the kon came to 87000 M⁻¹ s⁻¹.

Take B7: the Kd was found to be 12 nM, the Response was 0.13, the koff is 0.0017 s⁻¹ and the kon is 140000 M⁻¹ s⁻¹.

B8 registered a Kd of 1.7 nM, a Response of 0.18, a koff of 0.0002 s⁻¹ and a kon of 120000 M⁻¹ s⁻¹.

Consider B9, for which the Kd stood at 8.1 nM, the Response was found to be 0.06, the koff stood at 0.0011 s⁻¹ and the kon turned out to be 140000 M⁻¹ s⁻¹.

In turn, B10 gave a Kd of 6.1 nM, a Response of 0.04, a koff of 0.00061 s⁻¹ and a kon of 100000 M⁻¹ s⁻¹.

On to B11, for which the Kd came out at 2.4 nM, the Response amounted to 0.27, the koff was determined as 0.00022 s⁻¹ and the kon was 92000 M⁻¹ s⁻¹.

In the case of B12, the affinity, expressed as Kd, was 2.3 nM; the Response is 0.06; the koff turned out to be 4.9e-05 s⁻¹; the kon stood at 21000 M⁻¹ s⁻¹.

For B13, binding was characterised by a dissociation constant (Kd) of 26 nM, the Response is 0.13, the koff came to 0.0015 s⁻¹ and the kon was 59000 M⁻¹ s⁻¹.

In turn, B14 returned a Kd of 23 nM, a Response of 0.19, a koff of 0.004 s⁻¹ and a kon of 170000 M⁻¹ s⁻¹.

Turning to B15, the Kd worked out at 12 nM, the Response is 0.04, the koff stood at 0.00091 s⁻¹ and the on-rate constant (kon) worked out at 79000 M⁻¹ s⁻¹.

B16 showed a Kd of 6.7 nM, a Response of 0.03, a koff of 0.0079 s⁻¹ and a kon of 1.2e+06 M⁻¹ s⁻¹.

In a further test the target is T3, Recombinant human CD4 (R&D Systems, Cat. 10327-CD) (human, UniProt P01730 26-390, limits assumed).
T3 construct: Bought reagent; also called huCD4
Description: BLI Octet, non-clonal supernatant on AMC sensor, 100 nM human CD4, 1:1 local fit.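 Also: Single-concentration kinetics per supernatant, with the 1:1 model fitted across both the association and dissociation phases of the sensorgram.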
Turning to B17, the Kd stood at 7.47 nM, the koff came to 0.00134 s⁻¹ and the kon was found to be 179000 M⁻¹ s⁻¹.

Usually Kd stands for a measure of binding affinity in units of concentration. The term koff denotes the first-order rate constant of dissociation. What is called kon is the second-order rate constant of association.
